The subject of data set [1] is tau 4R2N (Homo sapiens), P10636-8. In words: EMSA. The settings on record: Hill coefficient 2.8; 26 nM tRNA, 0.5 mM MgCl2, 0.5 mM EDTA, 37 C; native tRNA modifications likely, not described; EMSA: 100 mM sodium acetate pH 7.0, 0.5 mM EDTA, 0.5 mM MgCl2, 0.01% IGEPAL CA-630, RNase inhibitor, 37 C 10 min, TBE 8% gel; ITC: 20 mM ammonium acetate pH 7 …. Background: In EMSA bound probe runs differently from free probe, usually more slowly.

Data set [2] shares this test system. The data set can be described thus: ITC. The settings on record: n = 0.52 tRNA per tau; 20 mM ammonium acetate pH 7; EMSA: 100 mM sodium acetate pH 7.0, 0.5 mM EDTA, 0.5 mM MgCl2, 0.01% IGEPAL CA-630, RNase inhibitor, 37 C 10 min, TBE 8% gel; ITC: 20 mM ammonium acetate pH 7 ….
The subject of the next data set is tau K18 (Homo sapiens). The data set can be described thus: ITC. The settings on record: n = 0.49 tRNA per tau; 20 mM ammonium acetate pH 7; EMSA: 100 mM sodium acetate pH 7.0, 0.5 mM EDTA, 0.5 mM MgCl2, 0.01% IGEPAL CA-630, RNase inhibitor, 37 C 10 min, TBE 8% gel; ITC: 20 mM ammonium acetate pH 7 ….

tau 4R2N (Homo sapiens), P10636-8, sequence (P10636 other isoform, or with tags, fused parts or gaps): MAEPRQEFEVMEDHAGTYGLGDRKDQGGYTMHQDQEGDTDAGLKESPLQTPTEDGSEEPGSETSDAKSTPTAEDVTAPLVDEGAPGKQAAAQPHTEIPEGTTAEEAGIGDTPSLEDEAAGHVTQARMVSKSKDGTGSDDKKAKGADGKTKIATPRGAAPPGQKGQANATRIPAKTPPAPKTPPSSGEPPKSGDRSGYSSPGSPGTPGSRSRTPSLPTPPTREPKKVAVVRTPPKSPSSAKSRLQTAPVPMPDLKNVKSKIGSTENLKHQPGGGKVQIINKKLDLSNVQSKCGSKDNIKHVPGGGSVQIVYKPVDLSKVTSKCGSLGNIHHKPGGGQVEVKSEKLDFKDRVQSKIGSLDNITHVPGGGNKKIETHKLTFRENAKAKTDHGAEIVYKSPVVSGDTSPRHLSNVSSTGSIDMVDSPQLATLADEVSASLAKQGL

As a reminder, the Kd is the concentration at which binding is half-saturated. A higher Kd goes with a looser complex. Regarding tRNALys, unacetylated, the dissociation constant (Kd) in data set [1] was 460 nM. yeast tRNA (bulk): the Kd in data set [2] amounted to 735 nM; in the data set with tau K18 (Homo sapiens) it was 372 nM.

(Values after paper PMC5500003.)
